Experimental data taken from publication PMC4861916, “Characterization of a Citrus R2R3-MYB Transcription Factor that Regulates the Flavonol and Hydroxycinnamic Acid Biosynthesis”.

B1: Cs4CL promoter probe mutant (dsDNA)
DNA 1: TTAACTGCTCTAGACACACCCA
DNA 2: TGGGTGTGTCTAGAGCAGTTAA
B2: Cs4CL promoter probe WT (dsDNA)
DNA 1: TTAACTGCACCTACCACACCCA
DNA 2: TGGGTGTGGTAGGTGCAGTTAA
B3: SlFLS promoter probe mutant (dsDNA)
DNA 1: CTTATATCGTCGACTCAACTTA
DNA 2: TAAGTTGAGTCGACGATATAAG
B4: CsCHS promoter probe WT (dsDNA)
DNA 1: TTGATTTAACCTACCCCCATTG
DNA 2: CAATGGGGGTAGGTTAAATCAA
B5: SlFLS promoter probe WT (dsDNA)
DNA 1: CTTATATCACCTACTCAACTTA
DNA 2: TAAGTTGAGTAGGTGATATAAG
B6: CsCHS promoter probe mutant (dsDNA)
DNA 1: TTGATTTCTAGAACCCCCATTG
DNA 2: CAATGGGGGTTCTAGAAATCAA

Biological target: CsMYBF1 (Citrus, UniProt A0A125SL50 1-337)
Sequence (A0A125SL50 entry or part of it): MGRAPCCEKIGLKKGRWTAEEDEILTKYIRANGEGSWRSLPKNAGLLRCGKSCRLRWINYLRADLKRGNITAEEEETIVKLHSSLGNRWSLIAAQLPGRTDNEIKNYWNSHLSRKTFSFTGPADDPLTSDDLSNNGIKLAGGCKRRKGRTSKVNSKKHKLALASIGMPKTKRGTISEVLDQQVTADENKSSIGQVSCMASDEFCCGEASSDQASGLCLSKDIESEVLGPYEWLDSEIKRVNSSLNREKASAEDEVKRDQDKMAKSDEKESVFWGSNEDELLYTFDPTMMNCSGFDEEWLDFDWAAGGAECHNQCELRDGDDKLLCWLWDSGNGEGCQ
Assay: EMSA; 0.1% Nonidet P-40, 1 mM benzamidine, 0.5 mM PMSF, 0.5 mM DTT, 50 ug/mL BSA, 100 ng/uL poly(dI-dC), 5 uM Cy3 probe, 1 ug protein in 20 uL, 4 C 2 h; 6% PAGE in 0.5x TBE at 4 C; salt and pH not stated
Settings: protein: recombinant; tags: His (pET28a); label: Cy3

| Binder | binding result |
| --- | --- |
| B1 | no binding |
| B2 | binds |
| B3 | no binding |
| B4 | binds |
| B5 | binds |
| B6 | no binding |
